Data taken from the RNAGym collection of RNA variant scans (doi:10.7554/elife.80360).

B1: Hammerhead Ribozyme (parent)
chain: ACCGGAUGUGCUUUCCGGUCUGAUGAGUCCGUGAGGACGAAACAG

Variants of: B1
Experiment: self-cleavage, relative activity (ratio to wild type); higher = more cleavage; co-transcriptional

Variant | self-cleavage
C11G G35U | 0.957
G10A U12C | 1.38
G5U G36A | 0.417
C11U U32G | 0.799
C3A U21A | 0.37
C2U U14A | 0.8
C16G G18C | 0.376
U28C C38G | 0.575
G18A G45C | 0.446
G27A G36A | 0.401
U28G G31C | 0.987
G5A G36U | 0.41
A1C G27U | 0.328
G33U A37U | 0.972
U14A G36U | 0.528
U13C C30U | 1.24
G27U A34C | 0.32
G8A C43G | 0.344
A6C G17C | 0.269
A40G C43U | 0.268
C2A C38G | 0.373
A1U C30A | 0.487
A1C G18A | 0.434
A34U A37G | 0.757

Variant | self-cleavage
C16A C38G | 0.542
U9C A26G | 0.379
G22A A23C | 0.224
U21C A44U | 0.571
C20G G45U | 0.316
G18A C38G | 0.453
G10C U19A | 0.317
U12G C16A | 1.18
U9C C43G | 0.274
A1C G5A | 0.483
A26U G33A | 0.961
U7G A44G | 1.82
A23U G31C | 0.393
A6C G33U | 0.579
C3A G4A | 0.293
U7A U12G | 1.33
G10A U32C | 1.52
U14C U19G | 0.334
U21A G22C | 0.31
U21A G22A | 0.35
C2A | 0.866
G18C A34C | 0.36
G10U C30G | 1
C30G A40U | 0.283

Variant | self-cleavage
C2U G31U | 1.12
G5U C29G | 0.434
G5U C11U | 0.458
U9G C20U | 0.468
G18C C29A | 0.374
U7C U21A | 0.327
C29A A37U | 0.703
G8C C20G | 0.288
A26U C29U | 0.598
G27U G36U | 0.328
U12C C20A | 0.449
A23G | 0.439
C11U A44U | 0.497
A40G A44G | 0.571
G22C A40C | 0.339
U7C U12C | 1.09
U12A G35U | 0.629
C20A G27C | 0.369
U14C G18C | 0.351
A1C G25A | 0.255
A6U G25A | 0.308
C38U A44U | 0.648
G10U C20U | 0.579
C29A G35C | 0.526

Variant | self-cleavage
C20A U24C | 0.368
C11A A42G | 0.241
G8U U28G | 0.789
C3U G39A | 0.309
A6U G39A | 0.281
G10C G18C | 0.614
G10U A41U | 0.358
A1C A40C | 0.446
G22A C29G | 0.332
G10A U24G | 0.875
C16A A44U | 0.5
G31U G36U | 0.466
G25U C38A | 0.328
G5U C38U | 0.498
C2U G45A | 0.873
A26C A34U | 0.344
U14C A23U | 0.341
C16U A26U | 0.816
G4U U19C | 0.345
U13A A23C | 0.503
A6G U7A | 1.09
G25U | 0.331
G25A C29A | 0.348
U19C A40U | 0.272

Variant | self-cleavage
G22C A37G | 0.416
U19A A37G | 0.326
G17U G31C | 0.86
C20G A40C | 0.322
G22C A34G | 0.306
G10A U21G | 0.462
U9A A40U | 0.367
U9A A40G | 0.349
G17A A40C | 0.347
A1G U28C | 1.79
C3U G18A | 0.412
A6G G27A | 0.657
G22C U24A | 0.365
U7A C15A | 0.852
A1G A41U | 0.42
U24C U32A | 1.18
U13A G36U | 0.713
A37C G45U | 0.636
G27C G33A | 0.864
C16A G45A | 0.574
A1C G17U | 0.346
G10A G22A | 0.352
C11U U14G | 0.765
C3U G4U | 0.302

Variant | self-cleavage
U19C U32G | 0.642
G25C C30G | 0.221
A6C U12A | 0.826
U12G U19A | 0.299
G22A | 0.356
U28G G45C | 0.412
C15U G27A | 0.687
C15G A37G | 0.535
U28G G33U | 0.972
G17C U24G | 0.462
G8A U13C | 1.2
A6U A34U | 0.631
C20G A41C | 0.329
U24A G45A | 0.75
U9C G17C | 0.354
A23G U28A | 0.329
G8A G10A | 1.16
C15U G35A | 0.756
G36A A41C | 0.382
G10A G35U | 0.925
G33U A41U | 0.361
C30U A44U | 0.625
G4C A44U | 0.34
C15G G35A | 0.468

Variant | self-cleavage
C15U G22A | 0.288
U12G C15U | 0.823
C11G A37U | 0.897
C2A A37C | 0.376
U7A G22A | 0.291
G5U A40U | 0.319
G10C G33C | 0.937
G4C U21G | 0.239
U7A U9G | 1.32
C29U C43A | 0.337
A6C C29A | 0.44
A1G U14C | 1.19
A1G A37C | 1.64
A26G G39C | 0.309
G10U U28G | 0.664
C2A G36A | 0.353
A26G G36U | 0.412
A1G G8A | 1.57
A1C U7G | 0.377
C3A G18C | 0.365
U14A C15A | 1.09
U13C A37C | 1.07
U19C C29A | 0.374
G10C U28A | 0.381

Variant | self-cleavage
G18A A40U | 0.288
U12C U21G | 0.609
U14C U32A | 0.825
G4A C15U | 0.532
C29U G35A | 0.636
U9A A23C | 0.46
U24A A37C | 1.03
G4U U13A | 1.14
G39U A41G | 0.327
U13G G25C | 0.315
U21G A34U | 0.348
U28C A41U | 0.319
U9C U21C | 0.718
A40C C43A | 0.299
A1U C3A | 0.767
G25U A26C | 0.288
A26G A44C | 0.266
U21C C30U | 0.891
C38G G39U | 0.402
C16A A41G | 0.352
U12C C15U | 0.974
C20G U28G | 0.323
A34C C43A | 0.309
C29G A37C | 0.759

Variant | self-cleavage
U24A C30A | 0.928
G31A G35C | 1.01
A40U A42U | 0.367
C15G A40C | 0.326
U12C C16G | 0.652
U7A G39U | 0.289
U14C A34G | 0.682
G4U G25U | 0.253
G4C A41U | 0.267
G17C U32A | 0.497
G27A G31U | 0.923
G8C A26U | 0.827
G10U C43A | 0.354
A1C U12C | 0.373
G8A C20U | 0.594
A6G G31A | 0.853
A23U G39U | 0.315
A26C G27C | 0.303
G8A G33U | 1.13
A23U G35U | 0.37
C29U G45A | 0.454
A34C A41U | 0.363
U14G C43U | 0.547
U9G G36C | 0.593

Variant | self-cleavage
G33A A42U | 0.27
G8U A37C | 1.09
U13C U28C | 1.29
G5U G10A | 1.29
G39U A44U | 0.372
U24G G27C | 0.692
A34U A42U | 0.306
C2U U13C | 1.34
C2U U13A | 1.52
G22U G27C | 0.347
U12A G22A | 0.261
G27A A42G | 0.321
A23C G31U | 0.647
A1G U12C | 1.71
U28G A37C | 0.919
G4U G35C | 0.326
U7A C30U | 1.05
U12G C43A | 0.362
U24G G45U | 0.489
G10A C30G | 0.783
G25U A44C | 0.42
A6U U13A | 0.747
C3U U12C | 0.99
C11A U13A | 1.46

Variant | self-cleavage
U28A G31A | 0.856
C11G C20G | 0.261
G10U G18U | 0.877
G4U G31A | 0.612
C15U C30G | 0.641
A6U C16G | 0.459
A26G C43U | 0.285
C3G U7C | 0.462
G36U A37U | 0.724
C15G C38A | 0.446
G4C G27C | 0.412
U19G A42U | 0.345
U9C C11G | 0.944
U24A G36U | 0.618
C3G U32A | 0.639
G18A G35C | 0.479
C11A U24G | 1.34
G27A G33A | 1.1
U32G G35U | 0.603
C16A G36U | 0.434
U9G U19A | 0.376
U12A U32C | 1.14
G25A A41C | 0.3
U13G A41G | 0.423

Variant | self-cleavage
U7G G36A | 0.624
U7A C43A | 0.317
G18C U19A | 0.349
U14G G31A | 0.929
G10A U28G | 1.15
G10A G36C | 0.843
G35C G45U | 0.498
C38U A40U | 0.348
U12C C38G | 0.663
U28C C43U | 0.405
G17A G25C | 0.321
U12G C38A | 0.711
U9C U19C | 0.514
G25C A26C | 0.355
C38G C43A | 0.456
C38G C43U | 0.393
C30U A41U | 0.419
G18C G33A | 0.765
C3U C43A | 0.344
A40U C43U | 0.336
G5C C15G | 1.13
U14A G39U | 0.315
G25U G45U | 0.323
U9C A34U | 0.65

Variant | self-cleavage
U28A A42C | 0.335
G35C A44G | 0.692
C20U A44C | 0.376
G8C G17C | 0.397
G4A G31C | 0.594
G17A A41G | 0.332
A1C C30G | 0.34
C2G G18C | 0.651
C2A G39U | 0.327
C2A G39A | 0.319
C11G U32A | 1.1
U21A C30A | 0.511
U21A C30G | 0.448
C2U U24C | 1.35
C2U A42U | 0.301
U32A G33U | 0.859
C16A G22U | 0.329
C2G G4C | 0.233
A1U C43A | 0.347
A37G A44G | 0.74
C20G G22U | 0.343
A34C A44C | 0.341
C20U A26G | 0.262
C3G U9C | 0.574

Variant | self-cleavage
U28G C30A | 0.408
A1G C3U | 1.34
U21C U32A | 0.71
G5A G27U | 0.538
G25A A26G | 0.306
U21A A42G | 0.307
C16U G36U | 0.507
G5C G35C | 0.324
G4C A42U | 0.297
C11U U12A | 1.3
A26G G31U | 0.516
C2U C16U | 1.07
U24C G36U | 0.541
U24A A44G | 1.68
A23C C29G | 0.369
G27C G45C | 0.493
A1G A6U | 1.08
A6C G31C | 0.573
U24G A26G | 0.304
C11U U13A | 1.34
A6C G8C | 0.916
G18C A42G | 0.372
